Publication PMC11584650, “An inhibitory segment within G-patch activators tunes Prp43-ATPase activity during ribosome assembly”

How the values were obtained:
Prp43 = Prp43 (Saccharomyces cerevisiae, UniProt P53131 1-767); test: fluorescence polarization; 5 mM Mg2+, no nucleotide listed; 50 mM HEPES pH 7.5, 50 mM KCl, 5 mM MgCl2, 0.05% Tween-20, 1 mM DTT; 5 nM Cy5-U12 RNA, protein 20 pM to 2.5 uM; temperature not stated; settings: protein: recombinant; tags: His6 (HRV site; pET47b); single strand
Prp43;Pxr1M = Prp43;Pxr1M (Saccharomyces cerevisiae;Saccharomyces …, UniProt P53131;P53335 1-767;72-137, |); test: fluorescence polarization; 5 mM Mg2+, no nucleotide listed; affinity unaltered vs Prp43 alone; 50 mM HEPES pH 7.5, 50 mM KCl, 5 mM MgCl2, 0.05% Tween-20, 1 mM DTT; 5 nM Cy5-U12 RNA, protein 20 pM to 2.5 uM; temperature not stated; settings: protein: recombinant;recombinant; tags: His6 (HRV site; pET47b);GST (pGEX-6P-1; copies: 1;1; single strand
Prp43;Tma23M = Prp43;Tma23M (Saccharomyces cerevisiae;Saccharomyces …, UniProt P53131;Q03525 1-767;43-111, |); test: as above; settings: protein: recombinant;recombinant; tags: His6 (HRV site; pET47b);GST (pGEX-6P-1; copies: 1;1; single strand

Measured: binding result

Prp43;Tma23M, sequence (P53131 whole entry, chain 1 of 2): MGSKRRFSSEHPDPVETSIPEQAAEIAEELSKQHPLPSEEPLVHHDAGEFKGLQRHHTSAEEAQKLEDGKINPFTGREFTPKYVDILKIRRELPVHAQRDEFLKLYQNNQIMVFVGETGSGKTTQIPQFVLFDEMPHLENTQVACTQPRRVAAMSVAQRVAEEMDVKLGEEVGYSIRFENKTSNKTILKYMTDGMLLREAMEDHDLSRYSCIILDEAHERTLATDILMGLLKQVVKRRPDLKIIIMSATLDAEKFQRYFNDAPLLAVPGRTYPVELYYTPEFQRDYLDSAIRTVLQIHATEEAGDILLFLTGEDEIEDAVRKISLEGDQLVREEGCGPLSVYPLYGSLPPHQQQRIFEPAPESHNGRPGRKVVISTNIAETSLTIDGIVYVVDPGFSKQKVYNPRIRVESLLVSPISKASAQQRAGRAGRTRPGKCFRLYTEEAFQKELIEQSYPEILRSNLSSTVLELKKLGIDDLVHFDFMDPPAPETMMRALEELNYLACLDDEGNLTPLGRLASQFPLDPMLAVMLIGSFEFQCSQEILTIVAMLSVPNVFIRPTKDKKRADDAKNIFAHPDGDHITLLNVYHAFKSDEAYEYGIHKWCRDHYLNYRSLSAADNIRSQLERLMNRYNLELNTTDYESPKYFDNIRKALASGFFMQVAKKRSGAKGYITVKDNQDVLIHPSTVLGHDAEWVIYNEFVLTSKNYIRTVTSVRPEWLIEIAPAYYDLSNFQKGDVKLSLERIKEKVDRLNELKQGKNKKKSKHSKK
Prp43;Tma23M, sequence (Q03525 43-111, chain 2 of 2): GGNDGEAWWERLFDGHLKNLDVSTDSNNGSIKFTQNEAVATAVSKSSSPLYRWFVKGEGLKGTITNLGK
Prp43;Pxr1M, sequence (P53131 whole entry, chain 1 of 2): as the sequence (P53131 whole entry, chain 1 of 2) above
Prp43;Pxr1M, sequence (P53335 72-137, chain 2 of 2): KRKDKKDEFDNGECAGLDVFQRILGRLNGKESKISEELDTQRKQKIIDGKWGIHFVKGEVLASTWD
Prp43, sequence (P53131 whole entry): as the sequence (P53131 whole entry, chain 1 of 2) above

B1: Cy5-U12 RNA (ssRNA)
RNA: UUUUUUUUUUUU
binds: all assays above
